Ten molecules from patent US20100098708A1 (AstraZeneca / MedImmune, published 2010) can be followed below.

Assay [1] has as its target F protein of RSV Long strain on infected HEp-2 cells (respiratory syncytial virus Long strain, UniProt P12568 26-574). Nature of the assay: cell-based or functional assay.
Assay [2] deals with RSV F protein (immobilised antigen of Example 6.1) (respiratory syncytial virus). Kind of assay: BIAcore.
For assay [3], the target named is Bac-F (respiratory syncytial virus). Nature of the assay: BIAcore, (1:1). On the technique in general: SPR reads the build-up and loss of mass on a sensor chip optically.
Sequence of Bac-F (respiratory syncytial virus) (P03420 26-524): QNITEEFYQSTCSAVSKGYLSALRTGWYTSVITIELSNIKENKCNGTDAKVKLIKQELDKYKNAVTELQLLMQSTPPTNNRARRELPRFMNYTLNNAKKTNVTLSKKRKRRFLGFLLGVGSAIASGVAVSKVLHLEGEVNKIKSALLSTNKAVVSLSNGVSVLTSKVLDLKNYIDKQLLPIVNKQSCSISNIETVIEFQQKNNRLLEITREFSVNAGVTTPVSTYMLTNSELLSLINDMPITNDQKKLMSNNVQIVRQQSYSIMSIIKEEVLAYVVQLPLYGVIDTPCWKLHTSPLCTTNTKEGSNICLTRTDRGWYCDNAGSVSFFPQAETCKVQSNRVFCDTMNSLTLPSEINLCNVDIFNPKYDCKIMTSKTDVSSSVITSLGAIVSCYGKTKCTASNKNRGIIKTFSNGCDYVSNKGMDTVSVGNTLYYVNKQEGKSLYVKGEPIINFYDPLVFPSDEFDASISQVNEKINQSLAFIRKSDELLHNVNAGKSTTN

Positions count from the first letter of the chain named. “And” between values parts separate entries of the source, which are not always exact repeats. Equal values may be shown once.

Sequence of RSV F protein (immobilised antigen of Example 6.1) (respiratory syncytial virus) (P03420 26-524): as above
Sequence of F protein of RSV Long strain on infected HEp-2 cells (P12568 26-574): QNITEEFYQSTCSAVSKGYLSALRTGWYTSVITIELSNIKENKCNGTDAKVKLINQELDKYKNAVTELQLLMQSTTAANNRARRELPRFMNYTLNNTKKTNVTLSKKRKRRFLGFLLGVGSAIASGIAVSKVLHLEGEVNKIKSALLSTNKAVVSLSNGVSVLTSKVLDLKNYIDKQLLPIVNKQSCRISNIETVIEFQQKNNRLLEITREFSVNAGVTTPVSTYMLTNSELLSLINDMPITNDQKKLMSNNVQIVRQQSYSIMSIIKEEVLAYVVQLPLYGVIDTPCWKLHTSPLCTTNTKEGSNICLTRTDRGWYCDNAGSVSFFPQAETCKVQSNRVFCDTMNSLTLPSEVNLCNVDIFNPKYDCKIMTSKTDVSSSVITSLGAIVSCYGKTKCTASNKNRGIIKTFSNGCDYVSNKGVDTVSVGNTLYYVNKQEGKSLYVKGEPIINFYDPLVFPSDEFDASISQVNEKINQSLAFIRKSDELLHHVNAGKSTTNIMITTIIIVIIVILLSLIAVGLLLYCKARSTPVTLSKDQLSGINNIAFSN

B1: P11d4 Fab (Fab, V domains shown)
VH: QVTLRESGPALVKPTQTLTLTCTFSGFSLSTPGMSVGWIRQPPGKALEWLADIWWDGKKHYNPSLKDRLTISKDTSKNQVVLKVTNMDPADTATYYCARDMIFNWYFDVWGQGTTVTVSS
VL: DIQMTQSPSTLSASVGDRVTITCSPSSRVGYMHWYQQKPGKAPKLLIYDTMRLASGVPSRFSGSGSGTEFTLTISSLQPDDFATYYCFQGSGYPFTFGGGTKVEIK
notes: Fab
In general, koff refers to the first-order rate constant of dissociation. The low end stands for a long-lived complex, the high end for a short-lived complex. A word on the kon: it is the second-order rate constant of association. Low values mean slower complex formation, high ones faster complex formation. On to B1, for which the “RSV microneutralization IC50” value in assay [1] is 0.292 µg/ml and 5.84 nM. For the same molecule, in assay [2], the koff was 0.000717 s⁻¹; the kon was 570000 M⁻¹ s⁻¹ and 572000 M⁻¹ s⁻¹.

B2: A13a11 Fab (Fab, V domains shown)
VH: B1 VH with P32A, G57D
VL: B1 VL with M51Y, L53H, A54S
notes: Fab
B2: in assay [2], the koff was 0.00025 s⁻¹ and the kon turned out to be 735000 M⁻¹ s⁻¹.

B3: A13c4 Fab (Fab, V domains shown)
VH: B1 VH with P32A, H60S, W105F
VL: B1 VL with P25L, R52Y, L53Q, A54S
notes: Fab
On to B3, for which, in assay [2], the koff amounted to 0.00028 s⁻¹; the kon is 781000 M⁻¹ s⁻¹ and 735000 M⁻¹ s⁻¹.

B4: A12a6 Fab (Fab, V domains shown)
VH: B1 VH with P32A, H60D, W105F
VL: B1 VL with P25A, M51F, R52K, A54S
notes: Fab
Take B4: in assay [2], the koff worked out at 0.00023 s⁻¹ and the kon stood at 743000 M⁻¹ s⁻¹.

B5: P12f2 Fab (Fab, V domains shown)
VH: B1 VH with G57D, W105F
VL: B1 VL with P25L, M51F, R52Y, A54S
notes: Fab
In assay [2], B5 displayed a koff of 0.000282 s⁻¹ and a kon of 663000 M⁻¹ s⁻¹.

B6: A1e9 Fab (Fab, V domains shown)
VH: B1 VH with P32A
VL: B1 VL with P25L, M51F, R52K, A54S
notes: Fab; also called Ale9
Consider B6, for which, in assay [2], the koff was 0.000453 s⁻¹ and the on-rate (kon) was determined as 790000 M⁻¹ s⁻¹.

B7: AFFF(1) IgG (antibody, V domains shown)
VH: B1 VH with P32A, G57D, H60D, D67S, D100S, F103T, W105F
VL: DIQMTQSPSTLSASVGDRVTITCSASSSVGYMHWYQQKPGKAPKLLIYDTFKLASGVPSRFSGSGSGTEFTLTISSLQPDDFATYYCFQGSFYPFTFGGGTKVEIKR
notes: IgG1/kappa
As for B7, in assay [2], the koff is 0.000274 s⁻¹ and 0.000266 s⁻¹ and 0.000206 s⁻¹; the kon was 108000 M⁻¹ s⁻¹ and 96000 M⁻¹ s⁻¹ and 124000 M⁻¹ s⁻¹.

B8: AFFF(1) Fab (Fab, V domains shown)
VH: B1 VH with P32A, G57D, H60D, D67S, D100S, F103T, W105F
VL: B1 VL with P25A, R28S, M51F, R52K, G92F
notes: Fab; also called AHH(1)
On to B8, for which, in assay [2], the koff was 0.000245 s⁻¹ and 0.000446 s⁻¹ and 0.000268 s⁻¹; the kon was 212000 M⁻¹ s⁻¹ and 156000 M⁻¹ s⁻¹ and 186000 M⁻¹ s⁻¹.

B9: 1X-493L1FR Fab (Fab, V domains shown)
VH: B1 VH with P32S, G57D, H60D, D67S, D100S, F103T
VL: B1 VL with P25A, R28S, M51S, R52K
notes: also called IX-493L1FR
Take B9: in assay [2], the koff amounted to 0.00065 s⁻¹ and the kon is 185000 M⁻¹ s⁻¹.

B10: A4B4 IgG (antibody, V domains shown)
VH: B1 VH with P32A, G57D, W105F
VL: B7 VL with S28R, K52F, A54D, F92G
notes: IgG1/kappa
By Kd is commonly meant the equilibrium constant for the complex coming apart. The low end stands for higher affinity, the high end for lower affinity. In the case of B10, in assay [3], binding was characterised by a dissociation constant (Kd) of 0.02 nM, the koff worked out at 1.06e-05 s⁻¹, the kon is 434000 M⁻¹ s⁻¹ and the “number in parentheses after KD (ratio to palivizumab = 1)” value turned out to be 195 fold.
